Results as given in paper PMC11910319, “Inhibition of L-threonine dehydrogenase from Trypanosoma cruzi reduces glycine and acetate production and interferes with parasite growth and viability” (The Journal of Biological Chemistry, 2024).
Values belong to the molecule of their own block, whether it stands above or below them.

Key:
[1] = target: T1, T. cruzi L-threonine dehydrogenase (TcTDH) (Trypanosoma cruzi, UniProt Q4CU39); assay: recombinant enzyme, diaphorase/resazurin coupled fluorescence assay; Ki by direct NADH fluorescence (Ki-Thr […], Ki-NAD+[…]); assay type: biochemical
T1 construct: gene Tc00.1047053507923.10; recombinant TcTDH, codon-optimized gene in pET28a, His-tag purified
T1 sequence (Q4CU39 1-332): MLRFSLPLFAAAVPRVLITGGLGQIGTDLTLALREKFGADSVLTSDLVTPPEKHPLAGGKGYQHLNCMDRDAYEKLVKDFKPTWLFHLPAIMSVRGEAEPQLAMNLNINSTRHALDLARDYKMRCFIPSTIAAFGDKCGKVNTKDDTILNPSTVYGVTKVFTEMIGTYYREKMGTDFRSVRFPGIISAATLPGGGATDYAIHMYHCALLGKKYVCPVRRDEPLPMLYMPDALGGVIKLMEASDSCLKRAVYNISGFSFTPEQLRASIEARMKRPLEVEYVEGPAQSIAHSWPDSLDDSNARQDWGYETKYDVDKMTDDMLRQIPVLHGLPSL

[2] = target: Trypanosoma cruzi L-threonine dehydrogenase (TcTDH), recombinant wild type (Trypanosoma cruzi (CL Brener Esmeraldo-like strain)); assay: SEC; data not shown; quaternary structure in solution
purified protein = substrate: C[C@@H](O)[C@H](N)C(=O)O; assay: purified protein; assay type: biochemical, Trypanosoma cruzi; settings: NAD+; K+ ([…] KCl)

- IC50 [1]: 3.5 µM
Molecule: CCOc1ccc(NC(=O)/C=C/c2ccc(CC)o2)cc1 [TCMDC-143160]

- stoichiometry N [2]: 2
Molecule: Trypanosoma cruzi L-threonine dehydrogenase (TcTDH), recombinant wild type (enzyme)

B1: T. cruzi L-threonine dehydrogenase (TcTDH) (Trypanosoma cruzi strain CL Brener) (protein)
chain: MLRFSLPLFAAAVPRVLITGGLGQIGTDLTLALREKFGADSVLTSDLVTPPEKHPLAGGKGYQHLNCMDRDAYEKLVKDFKPTWLFHLPAIMSVRGEAEPQLAMNLNINSTRHALDLARDYKMRCFIPSTIAAFGDKCGKVNTKDDTILNPSTVYGVTKVFTEMIGTYYREKMGTDFRSVRFPGIISAATLPGGGATDYAIHMYHCALLGKKYVCPVRRDEPLPMLYMPDALGGVIKLMEASDSCLKRAVYNISGFSFTPEQLRASIEARMKRPLEVEYVEGPAQSIAHSWPDSLDDSNARQDWGYETKYDVDKMTDDMLRQIPVLHGLPSL
notes: recombinant TcTDH
- Km (purified protein): 6.6 mM
